First the molecules themselves.
T1: normal ataxin-1 (AT1-30Q) (human, UniProt P54253 1-815)
T1 construct: mature; Polyglutamine tract of 30 glutamines; also called normal AT1; normal polyglutamine protein
T1 sequence (looked up): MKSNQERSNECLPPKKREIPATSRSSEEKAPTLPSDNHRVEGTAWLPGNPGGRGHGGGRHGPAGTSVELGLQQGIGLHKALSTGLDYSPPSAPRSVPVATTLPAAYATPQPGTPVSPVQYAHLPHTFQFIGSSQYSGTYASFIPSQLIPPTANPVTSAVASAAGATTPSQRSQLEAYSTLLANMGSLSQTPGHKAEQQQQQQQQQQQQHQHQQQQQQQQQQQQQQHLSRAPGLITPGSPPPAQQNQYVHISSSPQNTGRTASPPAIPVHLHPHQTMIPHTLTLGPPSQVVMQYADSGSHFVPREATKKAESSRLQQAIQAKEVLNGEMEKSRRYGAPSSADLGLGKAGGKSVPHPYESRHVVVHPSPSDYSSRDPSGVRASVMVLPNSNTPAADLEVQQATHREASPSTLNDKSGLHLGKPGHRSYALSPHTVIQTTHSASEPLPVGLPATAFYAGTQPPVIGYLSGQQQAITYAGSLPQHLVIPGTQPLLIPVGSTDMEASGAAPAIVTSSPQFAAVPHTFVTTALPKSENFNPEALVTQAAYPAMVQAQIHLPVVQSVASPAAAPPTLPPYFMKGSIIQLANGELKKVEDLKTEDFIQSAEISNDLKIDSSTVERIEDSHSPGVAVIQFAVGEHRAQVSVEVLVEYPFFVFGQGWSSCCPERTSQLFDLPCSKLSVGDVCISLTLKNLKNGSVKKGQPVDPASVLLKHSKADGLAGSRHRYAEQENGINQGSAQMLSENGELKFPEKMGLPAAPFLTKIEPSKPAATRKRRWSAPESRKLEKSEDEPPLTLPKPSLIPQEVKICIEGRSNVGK

B1: HMGB2-EGFP protein (rat HMGB2 expressed from pEGFP-N1-HMGB2) (other)
chain: MGKGDPNKPRGKMSSYAFFVQTCREEHKKKHPDSSVNFAEFSKKCSERWKTMSAKEKSKFEDLAKSDKARYDREMKNYVPPKGDKKGKKKDPNAPKRPPSAFFLFCSEHRPKIKSEHPGLSIGDTAKKLGEMWSEQSAKDKQPYEQKAAKLKEKYEKDIAAYRAKGKSEVGKKGPGRPTGSKKKNEPEDEEEEEEEEDDEDEEEEDEDEE
notes: Expressed in HeLa cells by transfection; precipitated from the lysate with anti-HMGB or anti-EGFP antibody; The order HMGB2 then EGFP follows from the vector pEGFP-N1; also called HMGB-EGFP protein; not shown: EGFP and linker encoded by pEGFP-N1 (Clontech)
B2: HMGB1-EGFP protein (rat HMGB1 expressed from pEGFP-N1-HMGB1) (other)
chain: MGKGDPKKPRGKMSSYAFFVQTCREEHKKKHPDASVNFSEFSKKCSERWKTMSAKEKGKFEDMAKADKARYEREMKTYIPPKGETKKKFKDPNAPKRPPSAFFLFCSEYRPKIKGEHPGLSIGDVAKKLGEMWNNTAADDKQPYEKKAAKLKEKYEKDIAAYRAKGKPDAAKKGVVKAEKSKKKKEEEDDEEDEEDEEEEEEEEDEDEEEDDDDE
notes: Expressed in HeLa cells by transfection; precipitated from the lysate with anti-HMGB or anti-EGFP antibody; The order HMGB1 then EGFP follows from the vector pEGFP-N1; HeLa cells also carry endogenous human HMGB1; also called HMGB-EGFP protein; not shown: EGFP and linker encoded by pEGFP-N1 (Clontech)
B3: normal huntingtin (Htt20Q) (other, human, UniProt P42858 1-88, looked up)
chain: MATLEKLMKAFESLKSFQQQQQQQQQQQQQQQQQQQQQPPPPPPPPPPPQLPQPPPQAQPLLPQPQPPPPPPPPPPGPAVAEEPLHRP
notes: domain: exon I; Only exon I of huntingtin, with 20 glutamines; also called normal Htt; normal polyglutamine protein

Common to all, as to assay: co-immunoprecipitation from HeLa cell lysate with anti-HMGB or anti-EGFP antibody, blot with CAG53b
For assay [1], the target named is T1, normal ataxin-1 (AT1-30Q). As to the method:
(§1) HeLa cells (1×10⁶) in a 10 cm dish were transfected with pEGFP-N1, pEGFP-N1-HMGB1 or pEGFP-N1-HMGB2 using SuperFect (invitrogen). The cells were also infected with adenoviral vectors (AxCAwt, AxCA-HMGB1, AxCA-HMGB2, AxCA-htt20Q, AxCA-htt111Q, AxCA-AT1-30Q or AxCA-AT1-82Q) in the same manner as described above. Immunoprecipitation was performed according to a known technique (Okazawa, H. et al., Neuron. 34, 701-713. (2002)). Specifically, collected HeLa cells were incubated at 4° C. in TNE buffer (10 mM Tris-HCl (pH7.8), […], 0.15M NaCl, 1 mM EDTA) for 1 hour and were then centrifuged at 17,400×g for 20 min. The supernatant was preincubated with protein G-Sepharose (Amersham Biosciences) at 4° C. for 2 hours and then centrifuged. The supernatant was incubated with anti-HMGB1 antibody (1:600, BD Biosciences), anti-HMGB2 antibody (1:600, BD Biosciences) or anti-GFP antibody (1:600, Clontech) overnight and was subsequently incubated with protein G-Sepharose for 2 hours. The protein G beads were collected by centrifugation (2,000×g) for 5 min and washed 5 times with TNE buffer. The bound proteins were eluted with a sample buffer, separated by SDS-PAGE, and blotted with CAG53b antibody (Scherzinger, E. et al., Cell. 90, 549-558. (1997)).
(§2) A plasmid pEGFP-N-1-HMGB1/2 was transfected into Hela cells and the cells were infected with an adenoviral vector designed to express normal or mutant polyglutamine protein. The cells expressed normal or mutant polyglutamine protein. The expression levels of polyglutamine protein and HMGB-EGFP protein were checked by Western blot using CAG53b antibody and anti-GFP antibody (left panel in FIG. 5). Immunoprecipitation was performed using anti-HMGB or anti-EGFP antibody. […] The pull-down assay using HeLa cells expressing polyglutamine protein indicated interaction between mutant polyglutamine protein and HMGB protein (FIG. 6).

Assay [2] deals with B2. On the procedure:
as §1, §2

In assay [3] the target is B1. As to the method: as §1, §2

With B1, the binding result in assay [1] is “no binding”.

As for B2, the binding result in assay [1] was “no binding”. Consider B3, for which the binding result in assay [2] and in assay [3] was “no binding” each time.
